Experimental data as given in patent publication US20250019450A1.
Positions count from the first letter of the chain named.

B1: VHH230B2 (VHH)
VHH: QVQLVESGGGLVQAGGSLRLSCAASGRTFSSYAMGWFRQAPGKEREFVSAISWSGLSTYYVESVQGRFTISRDNAKNTVYLQMNSLKPEDTAVYYCAASRIYTNYVARSYEYDDWGQGTQVTVSS
B2: VHH356B2 (VHH)
VHH: QLQLVESGGGLVQPGGSLRLSCAASGSIFSINAMGWYRQAPGKQRELVAAITSGGSTAYADSVKGRFTISRDNAKNTVYLQMNSLKPEDTAVYYCNADRDPITSWYVRGDYWGQGTQVTVSS
B3: VHH93B2 (VHH)
VHH: QVQLVESGGGLVQPGGSLRLSCAASGFTFEPYDMSWFRQAPGKGPEWVSAIDKGGGAGATYYADSVKGRFTISRDNAKKTLYLQMKSLKPEDTAVYYCAITAGPYSDSTPRVAYRGEGTQVTVSS
B4: VHH216B2 (VHH)
VHH: QVQLVESGGGLVQPGGSLRLSCATSEHTFGTYRMGWFRQAPGKEREFVAGISWTGQTTYYAASVKGRFAISKDNAKNTVYLQMNTLKSDDTAVYYCAVETNNLGRWDRPSEYDYWGQGTQVTVSS
B5: VHH219B2 (VHH)
VHH: QVQLEESGGGLVQAGGSLRLSCAASGRTFSSYVVGWFRQAPGKEREFVGRISWSGARTYYADSVEGRFTISRDNAKNTVYLQMNSLKPEDTAVYYCAADLKWEVLLSEHYEYWGQGTQVTVSS
B6: VHH241B2 (VHH)
VHH: QVQLVESGGGLVQLGDSLRLSCAASGRGFSSWTMAWFRQALGKRREFVAAITATGARTCSAESEGRFTISRDNAKNMVFLQMNSLKAEDTAVYYCAATGIASWDPGMADKYTYWGQGTQVTVSS
B7: VHH211B2 (VHH)
VHH: B5 VHH with E5V, G16N, E65K, Y110F
B8: VHH229B2 (VHH)
VHH: B1 VHH with S54N, L56G, T58R, Q65E
B9: VHH277B2 (VHH)
VHH: B6 VHH with G99E, S102G, A108G, T112P

target: cyno IL-12RB2 with C-terminal HA tag, transiently expressed on HEK-293T cells (cyno); experiment: FACS, periplasmic extract, HEK-293T
Sequence (chain, as listed by the source): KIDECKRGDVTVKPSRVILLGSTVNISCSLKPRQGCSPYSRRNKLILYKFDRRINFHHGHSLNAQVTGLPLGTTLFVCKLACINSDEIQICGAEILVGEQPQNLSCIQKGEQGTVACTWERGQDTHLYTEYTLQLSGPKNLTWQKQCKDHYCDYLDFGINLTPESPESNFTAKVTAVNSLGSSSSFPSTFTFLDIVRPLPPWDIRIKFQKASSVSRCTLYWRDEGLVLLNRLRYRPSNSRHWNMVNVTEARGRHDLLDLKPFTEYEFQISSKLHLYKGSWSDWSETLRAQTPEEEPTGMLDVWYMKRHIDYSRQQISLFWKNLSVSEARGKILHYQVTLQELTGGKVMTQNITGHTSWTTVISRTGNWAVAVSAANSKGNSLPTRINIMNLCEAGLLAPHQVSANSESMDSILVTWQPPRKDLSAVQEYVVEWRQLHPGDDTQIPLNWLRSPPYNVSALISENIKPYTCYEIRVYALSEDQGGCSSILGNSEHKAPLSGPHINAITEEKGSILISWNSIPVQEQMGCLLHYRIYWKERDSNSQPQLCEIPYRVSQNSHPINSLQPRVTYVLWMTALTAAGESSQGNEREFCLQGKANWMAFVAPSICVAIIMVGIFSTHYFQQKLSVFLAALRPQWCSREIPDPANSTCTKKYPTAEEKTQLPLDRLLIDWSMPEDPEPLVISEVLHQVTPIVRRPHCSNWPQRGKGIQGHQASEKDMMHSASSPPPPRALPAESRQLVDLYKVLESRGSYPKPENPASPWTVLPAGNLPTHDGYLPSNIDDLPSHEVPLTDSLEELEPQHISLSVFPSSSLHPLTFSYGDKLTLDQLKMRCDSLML

| Binder | FOB [fold] |
| --- | --- |
| B1 | 1.66 |
| B2 | 2 |

target: human IL-12RB2 with C-terminal HA tag, transiently expressed on HEK-293T cells (human) (UniProt Q99665); experiment: FACS, periplasmic extract, HEK-293T
Sequence (Q99665 24-862): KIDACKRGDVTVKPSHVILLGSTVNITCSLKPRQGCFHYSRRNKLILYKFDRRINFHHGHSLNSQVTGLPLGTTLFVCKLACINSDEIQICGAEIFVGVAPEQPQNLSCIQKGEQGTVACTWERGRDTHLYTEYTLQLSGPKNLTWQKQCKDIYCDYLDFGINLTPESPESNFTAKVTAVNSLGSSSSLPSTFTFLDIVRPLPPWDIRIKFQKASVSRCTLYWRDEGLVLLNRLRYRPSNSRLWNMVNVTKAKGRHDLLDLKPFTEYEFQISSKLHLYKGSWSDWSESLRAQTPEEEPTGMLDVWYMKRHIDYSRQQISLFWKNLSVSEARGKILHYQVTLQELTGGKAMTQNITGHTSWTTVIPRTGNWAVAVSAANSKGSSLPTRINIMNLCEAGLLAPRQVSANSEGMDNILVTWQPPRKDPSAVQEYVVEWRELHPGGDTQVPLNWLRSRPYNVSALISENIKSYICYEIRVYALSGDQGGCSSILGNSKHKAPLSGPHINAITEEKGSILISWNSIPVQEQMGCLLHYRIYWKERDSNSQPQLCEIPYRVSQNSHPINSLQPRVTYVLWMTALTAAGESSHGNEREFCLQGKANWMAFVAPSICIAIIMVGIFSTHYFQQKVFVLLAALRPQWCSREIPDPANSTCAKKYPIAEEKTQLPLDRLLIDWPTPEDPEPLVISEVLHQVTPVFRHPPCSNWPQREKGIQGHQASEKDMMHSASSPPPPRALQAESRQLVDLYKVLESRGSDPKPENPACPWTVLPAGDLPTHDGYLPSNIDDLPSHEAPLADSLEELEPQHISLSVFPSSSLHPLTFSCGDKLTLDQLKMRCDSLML

| Binder | FOB [fold] |
| --- | --- |
| B3 | 1.98 |
| B4 | 0.99 |
| B5 | 1.54 |
| B6 | 1.63 |

target: human IL-12Rβ2-huFc-his (R&D system), biotinylated (human) (UniProt Q99665); experiment: ELISA, periplasmic extract
Sequence (Q99665 24-622 limits assumed): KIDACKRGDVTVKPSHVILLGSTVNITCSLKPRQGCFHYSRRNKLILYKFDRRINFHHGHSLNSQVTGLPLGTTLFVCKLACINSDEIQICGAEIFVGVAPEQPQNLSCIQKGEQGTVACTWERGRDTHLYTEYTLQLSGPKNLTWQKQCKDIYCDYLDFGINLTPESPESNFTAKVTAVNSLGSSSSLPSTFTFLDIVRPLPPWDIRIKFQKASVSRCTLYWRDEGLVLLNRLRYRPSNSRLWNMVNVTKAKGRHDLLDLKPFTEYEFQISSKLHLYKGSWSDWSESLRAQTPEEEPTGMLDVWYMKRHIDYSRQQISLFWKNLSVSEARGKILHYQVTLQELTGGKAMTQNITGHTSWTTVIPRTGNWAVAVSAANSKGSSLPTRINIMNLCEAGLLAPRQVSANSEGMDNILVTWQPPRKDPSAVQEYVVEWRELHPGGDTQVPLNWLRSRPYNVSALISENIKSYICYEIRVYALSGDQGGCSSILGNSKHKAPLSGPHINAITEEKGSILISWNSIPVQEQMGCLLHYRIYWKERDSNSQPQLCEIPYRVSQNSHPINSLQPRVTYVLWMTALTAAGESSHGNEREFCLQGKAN

| Binder | OD450 nm |
| --- | --- |
| B7 | 0.227 |
| B4 | 0.586 |
| B8 | 0.138 |
| B6 | 0.139 |
| B9 | 0.137 |
